# Laboratory results as given in US20210002363A1 (PHANES THERAPEUTICS, published 2021).
# Read-outs that look alike come from different tables or passages of the source.
# B1: F10-H1L1 (antibody, V domains shown)
# VH: EVQLVQSGAEVKKPGSSVKVSCKASGYAFSSSWMNWVRQAPGQGLEWIGRIYPGDGYTHYNGMFKGRASLTADKSTSTGYMELSSLRSEDTAVFFCTRHGDFPYWYFDVWGRGTLVTVSP
# VL: DIQMTQSPSTLSASVGDRVTITCRASENIDSYLAWYQQKPGRAPKLLVYAATNLAVGVPSRFSGSGSGTEYTLTISSLQSDDFATYYCQHHYSTPPTFGQGTKLEIK
# notes: also called humanized F10 mAb H1L1
# B2: F10-H1L2 (antibody, V domains shown)
# VH: EVQLVQSGAEVKKPGSSVKVSCKASGYAFSSSWMNWVRQAPGQGLEWIGRIYPGDGYTHYNGMFKGRASLTADKSTSTGYMELSSLRSEDTAVFFCTRHGDFPYWYFDVWGRGTLVTVSP
# VL: DIQMTQSPSTLSASVGDRVTITCRASENIDSYLAWYQQKPGRAPKLLVYAATNLAVGVPSRFSGSGSGTEYTLTISSLQPDDFATYYCQHHYSTPPTFGQGTKLEIK
# notes: also called humanized F10 mAb H1L2
# B3: F10-H2L1 (antibody, V domains shown)
# VH: EVQLVQSGAEVKKPGSSVKVSCKASGYAFSSSWMNWVRQAPGQGLEWIGRIYPGDGYTHYNGMFKGRASLTADKSTSTGYMELSSLRSEDTAVFFCTRHGDFPYWYFDVWGRGTLVTVSS
# VL: DIQMTQSPSTLSASVGDRVTITCRASENIDSYLAWYQQKPGRAPKLLVYAATNLAVGVPSRFSGSGSGTEYTLTISSLQSDDFATYYCQHHYSTPPTFGQGTKLEIK
# notes: also called humanized F10 mAb H2L1
# B4: F17-H1L2 (antibody, V domains shown)
# VH: EVQLVETGGGLIQPGGSLRLSCAASGFTFSDFGMHWIRQAPGKGLEWVAYMSYTPGTFHYADTVKDRFTISRDNSKNTLYLQMNSLRAEDTAVYYCARVHVGTVDYWGQGTLVTVSS
# VL: EVVLTQSPATLSLSPGERATLSCRASQNINNNLHWFQQKPGQAPRLLIKYASQSISGIPARFSGSGSGTDFTLTISSLETEDFAVYFCQQSNSWPALTFGQGTKVEIK
# notes: also called humanized F17 mAb H1L2
# B5: F20-H1L2 (antibody, V domains shown)
# VH: QVQLVQSGAEVKKPGSSVKVSCKASGYTFASYYLYWVRQAPGQGLEWIGEINPRSGGTNFNEKFKSRATVTVDKSTSTAYMELSSLRSEDTAVYYCSRSGRLRGFYTMDYWGQGTLVTVSS
# VL: DIVMTQSPDSLAVSLGERATINCKAGENVGSYVSWYQQKPGQSPKLLIYGASNRYTGVPDRFSGSGSATDFTLTISSLQAEDVAVYYCGQTYRFLTFGQGTKVEIK
# notes: also called humanized F20 mAb H1L2
# B6: F20-H1L3 (antibody, V domains shown)
# VH: QVQLVQSGAEVKKPGSSVKVSCKASGYTFASYYLYWVRQAPGQGLEWIGEINPRSGGTNFNEKFKSRATVTVDKSTSTAYMELSSLRSEDTAVYYCSRSGRLRGFYTMDYWGQGTLVTVSS
# VL: DIQMTQSPSTLSASVGDRVTITCKAGENVGSYVSWYQQKPGKAPKLLIYGASNRYTGVPARFSGSGSATEFTLTISSLQPDDFATYYCGQTYRFLTFGQGTKVEVK
# notes: also called humanized F20 mAb H1L3
# B7: F20-H2L4 (antibody, V domains shown)
# VH: QVQLVQSGAEVKKPGSSVKVSCKASGYTFASYYLYWVRQAPGQGLEWIGEINPRSGGTNFNEKFKSRATVTVDASTSTAYMELSSLRSEDTAVYYCSRSGRLRGFYTMDYWGQGTLVTVSS
# VL: DIQMTQSPSTLSASVGDRVTITCKAGENVGSYVSWYQQKPGKAPKLLIYGASNRYTGVPARFSGSGSATEFTLTISSLQPEDFATYYCGQTYRFLTFGQGTKVEVK
# notes: also called humanized F20 mAb H2L4
# B8: F5-H1L2 (antibody, V domains shown)
# VH: EVQLLESGGGLVQPGGSLRLSCAVSGFTFSNYGMSWVRQAPGKGLEWVATISSGGSYTYYPDSVKGRFTISRDNSKNTLYLQMNSLRAEDTAVYYCSTQGSSGYVGYWGQGTLVTVSS
# VL: DIQMTQSPSSVSASVGDRVTITCKASQDITNFIGWYQHKPGKAPKLLISYTSILESGVPSRFSGSGSGTDYTLTISSLQPEDFATYYCLQYYNLWTFGGGTKVEIK
# notes: also called humanized F5 mAb H1L2
# B9: F5-H2L2 (antibody, V domains shown)
# VH: EVQLVESGGGLVQPGGSLRLSCAVSGFTFSNYGMSWVRQAPGKGLEWVATISSGGSYTYYPDSVKGRFTISRDNSKNTLYLQMNSLRAEDTAVYYCSTQGSSGYVGYWGQGTLVTVSS
# VL: DIQMTQSPSSVSASVGDRVTITCKASQDITNFIGWYQHKPGKAPKLLISYTSILESGVPSRFSGSGSGTDYTLTISSLQPEDFATYYCLQYYNLWTFGGGTKVEIK
# notes: also called humanized F5 mAb H2L2
# Legend:
# [1] = biological target: T1, FOLR1 on SK-OV-3 cells (ATCC HTB-77) (Homo sapiens (Human), UniProt P15328 25-234); assay: FACS on SK-OV-3 cells; MFI
# T1 construct: Endogenous FOLR1 of the cell line; also called cells that are known to express FOLR1
# [2] = biological target: T2, Recombinant extracellular domain of human FOLR1 (Novoprotein, Cat#: C784) (human, UniProt P15328 25-233, limits assumed); assay: ELISA on immobilized FOLR1 extracellular domain; O.D. 450 nm
# T2 construct: Bought reagent; also called recombinant FOLR1; immobilized FOLR1 extracellular domain
# [3] = biological target: T1, FOLR1 on SK-OV-3 cells (ATCC HTB-77); assay: FACS on SK-OV-3 cells; MFI; remark: listed apart in the source
# [4] = biological target: T2, Recombinant extracellular domain of …; assay: ELISA on immobilized FOLR1 extracellular domain; O.D. 450 nm; remark: listed apart in the source
# [5] = biological target: T1, FOLR1 on SK-OV-3 cells (ATCC HTB-77); assay: FACS on SK-OV-3 cells; MFI; remark: listed apart in the source
# [6] = biological target: T1, FOLR1 on SK-OV-3 cells (ATCC HTB-77); assay: FACS on SK-OV-3 cells; MFI; remark: listed apart in the source
# [7] = biological target: T2, Recombinant extracellular domain of …; assay: ELISA on immobilized FOLR1 extracellular domain; O.D. 450 nm; remark: listed apart in the source
# [8] = biological target: T1, FOLR1 on SK-OV-3 cells (ATCC HTB-77); assay: FACS on SK-OV-3 cells; MFI; remark: listed apart in the source
# [9] = biological target: T2, Recombinant extracellular domain of …; assay: ELISA on immobilized FOLR1 extracellular domain; O.D. 450 nm; remark: listed apart in the source
# [10] = biological target: T2, Recombinant extracellular domain of …; assay: as above; remark: listed apart in the source
# [11] = biological target: T1, FOLR1 on SK-OV-3 cells (ATCC HTB-77); assay: FACS on SK-OV-3 cells; MFI; remark: listed apart in the source
# [12] = biological target: T2, Recombinant extracellular domain of …; assay: ELISA on immobilized FOLR1 extracellular domain; O.D. 450 nm; remark: listed apart in the source
# [13] = biological target: T1, FOLR1 on SK-OV-3 cells (ATCC HTB-77); assay: FACS on SK-OV-3 cells; MFI; remark: listed apart in the source
# [14] = biological target: T2, Recombinant extracellular domain of …; assay: ELISA on immobilized FOLR1 extracellular domain; O.D. 450 nm; remark: listed apart in the source
# T1 sequence (P15328 25-234 limits assumed): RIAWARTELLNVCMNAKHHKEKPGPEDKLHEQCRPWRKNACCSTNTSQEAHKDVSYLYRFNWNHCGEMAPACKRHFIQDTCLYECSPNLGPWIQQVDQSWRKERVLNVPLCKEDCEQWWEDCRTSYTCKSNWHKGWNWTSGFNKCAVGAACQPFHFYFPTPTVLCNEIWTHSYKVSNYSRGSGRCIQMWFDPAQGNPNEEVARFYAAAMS
# T2 sequence (P15328 25-233 limits assumed): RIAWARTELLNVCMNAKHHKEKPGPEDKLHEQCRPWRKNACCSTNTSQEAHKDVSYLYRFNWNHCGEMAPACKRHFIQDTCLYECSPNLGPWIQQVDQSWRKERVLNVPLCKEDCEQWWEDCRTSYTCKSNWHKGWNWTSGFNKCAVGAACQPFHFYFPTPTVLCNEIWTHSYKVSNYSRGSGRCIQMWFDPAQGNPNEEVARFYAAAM
binder,measurement,setting,value
B1,EC50 (read off the curve),[1],~3 nM
same,EC50 (read off the curve),[2],0.1 to 0.2 nM
B2,EC50 (read off the curve),[3],~3 nM
same,EC50 (read off the curve),[4],~0.3 nM
B3,EC50 (read off the curve),[5],~3 nM
B4,EC50 (read off the curve),[6],~0.9 nM
same,EC50 (read off the curve),[7],~0.2 nM
B5,binding result,[8],binds
same,binding result,[9],binds
B6,EC50 (read off the curve),[10],~0.2 nM
B7,EC50 (read off the curve),[11],~3 nM
same,EC50 (read off the curve),[12],~0.2 nM
B8,EC50 (read off the curve),[13],~0.9 nM
same,EC50 (read off the curve),[14],0.2 to 0.3 nM
B9,EC50 (read off the curve),[13],~0.9 nM
same,EC50 (read off the curve),[14],0.2 to 0.3 nM
